Assay results taken from US9580487B2, “Method of treating stomach or bowel-related disorders by administering glucagon-like-peptide-2 (GLP-2) analogues” (Zealand Pharma A/S, priority 2005, dated 2017).

Columns and labels:
[1] = Chemical stability testing: incubation in HCl, NaOH, H2O2 or NH4HCO3 at 40° C., remaining purity by RP-HPLC; assay type: physicochemical; conditions: 40° C., 2 mg/ml, relative to the purity at T=0
Method: The GLP-2 analogues were dissolved in purified water and subsequently diluted in solutions containing HCl, NaOH, H2O2 or NH4HCO3. The solutions were incubated at 40° C. to produce hydrolysis, deamidation and oxidation products. The samples were analyzed by RP-HPLC and the percentage of remaining intact compound was determined as a measure for the relative stability. The major degradation products were tentatively identified by LC-MS.
The GLP-2 analogues tested and the reference Gly^2-GLP-2, ZP1559 (SEQ ID NO:54), were dissolved in water and subsequently diluted into solutions containing HCl, NaOH, H2O2 or NH4HCO3. The samples were incubated at 40° C. to generate hydrolysis, deamidation and oxidation products, respectively. The compounds were analysed by RP-HPLC for purity of the original main peak and by LC-MS for confirmation of the identity by mass of the main peak and major degradation products.
The GLP-2 analogues were first dissolved in MQW to a concentration of 4 mg/ml and then further diluted in the stress solutions at a 1:1 ratio (e.g. 125 μl plus 125 μl). The final concentrations were 2 mg/ml of the GLP-2 analogues for stress conditions with 0.1 M HCl, 0.01M NaOH, 0.1 M NH4HCO3 and 0.5% H2O2, respectively.
The solutions were incubated at 40° C. in the dark and then diluted in Eluent A to a concentration of 0.5 mg/ml (addition of 750 μl) prior to analyses by RP-HPLC and by LC-MS.
The RP-HPLC analyses were performed on an Agilent Series 1100 HPLC system under control of the ChemStation (Revision A.08.03 [847]) software from Agilent Technologies, Inc. The raw data and the results of the peak integration were deposited on the ChemStore C/S server by the use of Agilent Technologies Revision B01.03 software.
The results are shown in Table 9 as the compound purity measured by RP-HPLC after incubation under stress conditions. This purity is a measure for the remaining intact compound after incubation in stress solutions, relative to the purity measured a T=0.

[2] = Tentative identification of major degradation products in stress test samples by LC-MS; assay type: physicochemical; conditions: 3 days at 40° C. in 0.5% H2O2
Method: Analytical LC-MS analyses were performed on an Agilent Technologies 1100 HPLC instrument consisting of an on-line degasser, quaternary gradient pump, an auto sampler, a column oven, an UV detector. The HPLC instrument was interfaced with a Micromass LCT (ESI-TOF) mass spectrometer under control of Masslynx 3.5 software, from MicroMass, UK.
Major degradation products in the stress test samples were tentatively identified by the LC-MS method. Any isomers to the parent compounds and minor degradation products were not observed by this analytical LC-MS method.

male C57BL mice [3] = assay: Screening for intestinal growth effects (small intestine and colon mass relative to body weight, small intestine-colon sensitivity index); assay type: in vivo
How it was run: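 Groups of six mice were dosed s.c. at 30 nmol/kg twice daily for ten days, with vehicle (PBS, pH 7.4) or equimolar [Gly2]GLP-2 as comparators. The sensitivity index was (SI/Colon) of the compound over that of [Gly2]GLP-2, with ≥1.05 counted as small-intestine-selective and ≤0.95 as colon-selective.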

male C57BL mice [4] = assay: Dose-response effect on intestinal growth (SI mass, SI-Colon Sensitivity Index, colon and stomach mass); assay type: in vivo; conditions: 5-405 nmol/kg s.c. b.i.d. for three days, vs vehicle
Method: Values are means±SEM. *: P<0.05 relative to the equimolar dose of [Gly2]GLP-2 (SEQ ID NO:54).
FIG. 2 is a set of graphs showing full dose-response data of four small intestine selective compounds (compound nos. 1846 (SEQ ID NO:34), 1855 (SEQ ID NO:43), 1848 (SEQ ID NO:36), 1858 (SEQ ID NO:46)) on the Small Intestine (SI)-to-Colon Sensitivity Index mice relative to the non-selective reference compound [Gly2]GLP-2 (SEQ ID NO:54). Compounds were administered by subcutaneous injection b.i.d. for three days in C57BL mice at the following doses: 0 (vehicle), 5, 15, 45, 135, 405 nmol/kg (n=6/dose group). Responses at each dose level were compared with responses obtained at the same dose level in pair-treated mice treated with the non-selective reference compound [Gly2]GLP-2 (SEQ ID NO:54). The SI-Colon Sensitivity Index was calculated as SI-mass relative to colon mass and the Sensitivity Index at each dose level was normalized to the response observed with the non-selective reference compound [Gly2]GLP-2 (SEQ ID NO:54). […] Values are means±SEM. *: P<0.05 relative to the equimolar dose of [Gly2]GLP-2.
FIG. 4 is a set of graphs showing full dose-response data of three small intestine selective compounds (compound nos. 1857 (SEQ ID NO:45), 1820 (SEQ ID NO:10), and 1849 (SEQ ID NO:37)) on the Small Intestine (SI)-to-Colon Sensitivity Index mice relative to the non-selective reference compound [Gly2]GLP-2 (SEQ ID NO:54). Compounds were administered by subcutaneous injection b.i.d. for three days in C57BL mice at the following doses: 0 (vehicle), 5, 15, 45, 135, 405 nmol/kg (n=6/dose group). Responses at each dose level were compared with responses obtained at the same dose level in pair-treated mice treated with the non-selective reference compound [Gly2]GLP-2 (SEQ ID NO:54). The SI-Colon Sensitivity Index was calculated as SI-mass relative to colon mass and the Sensitivity Index at each dose level was normalized to the response observed with the non-selective reference compound [Gly2]GLP-2 (SEQ ID NO:54). […] Values are means±SEM. *: P<0.05 relative to the equimolar dose of [Gly2]GLP-2 (SEQ ID NO:54).
Compounds were administered by subcutaneous injection b.i.d. for three days in C57BL mice at the following doses: 0 (vehicle), 5, 15, 45, 135, 405 nmol/kg (n=6/dose group). […] Values are means±SEM. *: P<0.05 relative to the vehicle.
The dose-response effect of 1820 (SEQ ID NO:10), 1855 (SEQ ID NO:43), ZP1846 (SEQ ID NO:34), 1858 (SEQ ID NO:46), 1849 (SEQ ID NO:37), 1848 (SEQ ID NO:36), and 1857 (SEQ ID NO:45) on small intestinal mass was determined in male C57BL mice. Individual groups (n=6) of mice were given 5, 15, 45, 135 or 405 nmol/kg of each compound, s.c, twice daily for three consecutive days. For comparison purposes other groups of animals were given either equimolar doses of [Gly2]GLP-2 (SEQ ID NO:54) or vehicle (phosphate buffered saline, pH 7.4) in the same dosing regimen. Twenty-four hours after the last dose of compound had been given the mice were sacrificed and the small intestine (from the pylorus to the cecum emptied and weighed to determine the effect on small intestinal mass.

[5] = tested on: colonic neoplasms in mice; conditions: cited from earlier work
[6] = in vivo; cited from earlier work
[7] = tested on: male Sprague Dawley rats treated with indomethacin; assay: Indomethacin-induced small intestinal ulcers (model of Crohn's disease), extent of ulceration; assay type: in vivo; conditions: prednisolone 10 mg/kg vs indomethacin alone
Method: FIG. 13 is a graph illustrating the effect of compound 1848 (SEQ ID NO:36) on small intestinal ulcers induced by indomethacin. Male Sprague Dawley rats were treated with vehicle (saline; group 1) or indomethacin (7 mg/kg s.c., once daily for two days; groups 2-7). Indomethacin was given alone (group 2) or in combination with prednisolone (10 mg/kg s.c.; group 3) or with 8, 40, or 200 nmol/kg compound 1848 (SEQ ID NO:36) s.c. […] (groups 4-6). Finally, one group of rats was treated with combination treatment of prednisolone (10 mg/kg s.c.) and compound 1848 (SEQ ID NO:36), 200 nmol/kg s.c. once daily (group 7). Treatment with compound 1848 (SEQ ID NO:36) was initiated 4 days prior to indomethacin and continued during the two days of indomethacin treatment. On day 3, rats were sacrificed and upon necropsy, the small intestine was gently flushed with 10% formalin and filled with formalin for a period of 5 minutes, after which the intestine was cut open along the antimesenteric margin and suspended on a polypropylene plate. Any remaining intestinal contents were carefully removed with a pair of tweezers. After fixation for another 24 hours at room temperature, the tissue was rinsed in Milli-Q water and surface-stained for 20 minutes with Alcian Green 3BX (Chroma) prepared as a 0.5% solution in 1% acetic acid (Bie & Berntsen). After removal of excess staining solution with Milli-Q water the tissue preparation was transferred to 70% alcohol and analyzed using a stereomicroscope at low magnification (×7). Starting at the pylorus, the small intestine was scanned and the shape (circular vs. linear) and size (circular ulcers: diameter, linear ulcers: length×width) of all ulcers was measured using a standard ruler (resolution: 0.5 mm). An ulcer was defined as an area, which lacked epithelial surface. In healing ulcers only the area that still lacked epithelial surface was regarded an ulcer even if the villus structure was still missing in a larger area. All analysis was performed in a blinded manner. […] Treatment with prednisolone caused a significant reduction in the extent of ulceration by app. 29%. […] Values are means±SEM. * P<0.05 vs. indomethacin (group 2). ^#P<0.05 vs. prednisolone (group 3).
Crohn's disease is a chronic disease that causes episodic inflammation of the small intestine. The effect of the GLP-2 analogue 1848 (SEQ ID NO:36) on small intestinal inflammation in an indomethacin-induced model of Crohn's disease was investigated. We have previously shown that administration of indomethacin (s.c, once daily for 2 days) induces small intestinal inflammation characterized by ulcerations and, increases in the pro-inflammatory cytokine, tumour necrosis factor alpha (TNF-α).
To determine the effect of ZP1848 (SEQ ID NO:36) on ulceration 1848 (SEQ ID NO:36) (8, 40 and 200 nmol/kg, s.c, twice daily (9:00 and 16:00)) was given for 4 days prior to the first dose of indomethacin and for an additional two days together with indomethacin. The corticosteroid, prednisolone (10 mg/kg, p.o) was used as a positive control since corticosteroids are commonly used in the treatment of active inflammation in Crohn's disease. In addition a group of animals were given both 1848 (SEQ ID NO:36) (200 nmol/kg) and prednisolone to determine the effects of a combination treatment. Twenty four hours after the last dose of 1848 (SEQ ID NO:36) had been given the animals were sacrificed the small intestine was gently flushed clean and fixed. To determine the extent of ulceration the intestine was cut open along the antimesenteric margin, suspended on a polypropylene plate and surface-stained with Alcian Green 3BX. Starting at the pylorus, the small intestine was scanned and the shape (circular vs. linear) and size (circular ulcers: diameter, linear ulcers: length×width) of all ulcers was measured using a standard ruler (resolution: 0.5 mm). An ulcer was defined as an area, which lacked epithelial surface. […]

TNF-α = assay: Small intestinal tissue content of TNF-α (ELISA) in rats with indomethacin-induced inflammation; assay type: in vivo; conditions: prednisolone 10 mg/kg alone
Method: Male Sprague Dawley rats were treated with vehicle (saline; group 1) or indomethacin (7 mg/kg s.c., once daily for two days; groups 2-7). […] On day 3, rats were sacrificed and upon necropsy, the small intestine was divided into three segments of equal length corresponding to 1) duodenum and proximal jejunum, 2) mid and distal jejunum and 3) ileum. Samples were immediately snap-frozen in liquid N2 and stored at −80° C. until analysis. Homogenization and extraction of cellular protein from small intestinal segments was performed according to the following procedure: Tissue segments were weighed and added a volume of 1.5 ml per gram tissue ice-cold (4° C.) extraction buffer (10 mM Tris-HCl (Sigma) and 1 mM EDTA (J. T. Baker), (pH 7.6) with 0.05% sodium azide (Fluka), 1% Tween-80 (Fluka), 2 mM phenylmethylsulfonyl fluoride (PMSF, Fluka) and 1 μg/ml of each of the protease inhibitors aprotinin, leupeptin and pepstatin A (Roche Diagnostics)). The tissue was cut into small bits with a pair of scissors and homogenized three times for 20 seconds (IKA UltraTurrax T25 homogenizer, Janke & Kunkel) at 9500 rpm with intermittent cooling on ice for 30 seconds. The homogenate was centrifuged at 20.000×g for 30 minutes at 4° C., the supernatant was collected and stored at −20° C. until analysis for TNF-α small intestinal protein extractions were analyzed for TNF-α using a commercially available ELISA kit according to the manufacturer's instructions (Rat Tumor Necrosis Factor-α UltraSensitive ELISA kit, Biosource International Inc.). The assay has a detection limit of 0.7 pg/ml. Protein extractions were analyzed for total protein content using a commercially available assay (DC protein assay, Bio-Rad Laboratories Ltd.). Small intestinal tissue levels of TNF-α were expressed relative to total protein. […] Values are means±SEM. * P<0.05 vs. indomethacin (group 2).
At sacrifice, however the small intestine was separated into three segments of equal length (proximal, mid and distal). TNF-α concentrations were measured in each of the individual segments using a commercially available ELISA kit.

Compound | Purity H2O2 0.5% 3 days ([1]; RP-HPLC) [%] | Purity HCl 0.1M 12 days ([1]; RP-HPLC) [%] | Purity NH4HCO3 0.1M 6 days ([1]; pH 8, RP-HPLC) [%] | Intact product found by LC-MS after H2O2 stress [2] | Preferential growth of small intestine versus colon (small intestine-colon sensitivity) (male C57BL mice [3]; 30 nmol/kg s.c. twice daily, ten days, relative to [Gly2]GLP-2) | colon mass relative to body weight, % [Gly2]GLP-2 (male C57BL mice [3]; male C57BL mice, 30 nmol/kg s.c. twice daily for ten days) | small intestine-colon sensitivity index, (SI/Colon)X/(SI/Colon)[Gly2]GLP-2 % (male C57BL mice [3]; male C57BL mice, 30 nmol/kg s.c. twice daily for ten days, third value column) | Growth stimulation of small intestine, colon and stomach mass (male C57BL mice [4]) | Growth of colonic neoplasms [5] | half life [6] | Reduction in the extent of ulceration [7] [%] | Tissue levels of TNF-α, all 3 segments (TNF-α)
H-[Gly2]hGLP-2-OH [Compound 1559, reference compound] | <5 | 57 | 66 | No product intact | without preferential growth in small intestine or colon | 100 % [Gly2]GLP-2 | 100 % [Gly2]GLP-2 | produced dose-dependent growth stimulation in small intestine, colon and stomach | accelerate the growth of colonic neoplasms in mice | – | – | –
H-His-Ala-Asp-Gly-Ser-Phe-Ser-Asp-Glu-Met-Asn-Thr-Ile-Leu-Asp-Asn-Leu-Ala-Ala-Arg-Asp-Phe-Ile-Asn-Trp-Leu-Ile-Gln-Thr-Lys-Ile-Thr-Asp-OH [GLP-2] | – | – | – | – | – | – | – | – | accelerate the growth of colonic neoplasms in mice | about 7 minutes | – | –
C[C@]12C=CC(=O)C=C1CC[C@@H]1[C@@H]2[C@@H](O)C[C@@]2(C)[C@H]1CC[C@]2(O)C(=O)CO [prednisolone, reference compound] | – | – | – | – | – | – | – | – | – | – | ~29 | did not significantly affect tissue levels of TNF-α
